Assay results as given in the supplement of paper PMC9112550, “Optimization of the antimicrobial peptide Bac7 by deep mutational scanning” (BMC Biology, 2022).

System: Escherichia coli TOP10
Assay: shrunken log2 fold change of peptide-encoding DNA abundance (4.5 h post-induction vs induction); higher = less antimicrobial activity (less host growth inhibition)
Conditions: time post-induction: 4.5 h; library: site-saturation at positions 5, 18, 19, 20
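Note: peptides expressed intracellularly from a pBAD plasmid library in pooled LB shake-flask culture, induced with 0.3% L-arabinose, DNA abundance read by NGS, three biological replicates, DESeq2 with apeglm shrinkage.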

Point of comparison: RRIRSRPPRLPRPRPRPRGDPRP, “shrunken log2 fold change” value 0.477. Against it:
- RRIRIRPPRLPRPRPRPVRYPRP — within 0.2 log units, 0.326
- RRIRPRPPRLPRPRPRPQKNPRP — lower, -0.169
- RRIRWRPPRLPRPRPRPACPPRP — lower, 0.105
- RRIRHRPPRLPRPRPRPGMNPRP — lower, 0.00489
- RRIRARPPRLPRPRPRPRSLPRP — lower, 0.0678
- RRIRCRPPRLPRPRPRPPKMPRP — lower, 0.222
- RRIRKRPPRLPRPRPRPWEIPRP — lower, -0.00947
- RRIRARPPRLPRPRPRPTWCPRP — within 0.2 log units, 0.325
- RRIRMRPPRLPRPRPRPTLVPRP — lower, 0.171
- RRIRDRPPRLPRPRPRPCSPPRP — lower, 0.0779
- RRIRMRPPRLPRPRPRPDWCPRP — lower, 0.0698
- RRIRIRPPRLPRPRPRPWFYPRP — lower, -0.161
- RRIRYRPPRLPRPRPRPWFFPRP — lower, -0.841
- RRIRYRPPRLPRPRPRPVKTPRP — lower, -0.0365
- RRIRPRPPRLPRPRPRPWVIPRP — lower, 0.0892
- RRIRPRPPRLPRPRPRPTGHPRP — lower, 0.0828
- RRIRRRPPRLPRPRPRPSYSPRP — lower, -0.319
- RRIRHRPPRLPRPRPRPGFYPRP — lower, -0.363
- RRIRNRPPRLPRPRPRPLMIPRP — lower, -0.0419
- RRIRERPPRLPRPRPRPQCGPRP — lower, -0.43
- RRIRCRPPRLPRPRPRPQLWPRP — within 0.2 log units, 0.366
- RRIRKRPPRLPRPRPRPGVMPRP — higher, 0.895
- RRIRKRPPRLPRPRPRPIVSPRP — lower, -0.0354
- RRIRWRPPRLPRPRPRPKRSPRP — lower, 0.08
- RRIRERPPRLPRPRPRPINPPRP — lower, -0.00597
- RRIRARPPRLPRPRPRPMYIPRP — lower, -0.345
- RRIRLRPPRLPRPRPRPNASPRP — lower, 0.0769
- RRIRKRPPRLPRPRPRPPEKPRP — lower, 0.00179
- RRIRQRPPRLPRPRPRPRMKPRP — lower, -0.249
- RRIRTRPPRLPRPRPRPLKGPRP — lower, -0.377
- RRIRIRPPRLPRPRPRPHACPRP — lower, -1.14
- RRIRARPPRLPRPRPRPNPAPRP — higher, 0.796
- RRIRRRPPRLPRPRPRPATVPRP — lower, -0.037
- RRIRRRPPRLPRPRPRPCDQPRP — lower, 0.0305
- RRIRDRPPRLPRPRPRPNSEPRP — lower, 0.261
- RRIRMRPPRLPRPRPRPLIPPRP — lower, -0.0413
- RRIRFRPPRLPRPRPRPQTTPRP — lower, 0.00489
- RRIRDRPPRLPRPRPRPIPGPRP — lower, 0.171
- RRIRPRPPRLPRPRPRPEIIPRP — lower, -0.0816
- RRIRRRPPRLPRPRPRPLPGPRP — within 0.2 log units, 0.59
- RRIRRRPPRLPRPRPRPTWEPRP — lower, 0.0289
- RRIRPRPPRLPRPRPRPRYMPRP — lower, -0.213
- RRIRWRPPRLPRPRPRPDYNPRP — lower, -0.288
- RRIRERPPRLPRPRPRPMQDPRP — within 0.2 log units, 0.306
- RRIRKRPPRLPRPRPRPFGIPRP — lower, -0.00674
- RRIRWRPPRLPRPRPRPNIEPRP — lower, -0.0429
- RRIRWRPPRLPRPRPRPSTRPRP — lower, 0.00128
- RRIRSRPPRLPRPRPRPDHCPRP — lower, -0.0225
- RRIRDRPPRLPRPRPRPWRWPRP — lower, 0.196
- RRIRGRPPRLPRPRPRPSFSPRP — lower, 0.154
- RRIRFRPPRLPRPRPRPIRRPRP — lower, 0.0321
- RRIRLRPPRLPRPRPRPWVAPRP — within 0.2 log units, 0.29
- RRIRVRPPRLPRPRPRPQEHPRP — lower, -0.251
- RRIRKRPPRLPRPRPRPGCAPRP — higher, 0.82
- RRIRPRPPRLPRPRPRPCMWPRP — lower, 0.0459
- RRIRWRPPRLPRPRPRPWCCPRP — lower, -0.065
- RRIRQRPPRLPRPRPRPYRPPRP — lower, -0.103
- RRIRERPPRLPRPRPRPMAFPRP — lower, 0.099
- RRIRKRPPRLPRPRPRPLIIPRP — lower, -0.501
- RRIRLRPPRLPRPRPRPGIVPRP — lower, -0.16
- RRIRTRPPRLPRPRPRPRRDPRP — within 0.2 log units, 0.394
- RRIRSRPPRLPRPRPRPDDEPRP — lower, 0.0222
- RRIRYRPPRLPRPRPRPAAVPRP — lower, 0.0751
- RRIRQRPPRLPRPRPRPMLLPRP — lower, -0.337
- RRIRLRPPRLPRPRPRPMWCPRP — lower, 0.214
- RRIRNRPPRLPRPRPRPPEGPRP — higher, 1.62
- RRIRERPPRLPRPRPRPKPKPRP — lower, 0.0931
- RRIRDRPPRLPRPRPRPGRAPRP — within 0.2 log units, 0.478
- RRIRTRPPRLPRPRPRPNVPPRP — lower, -0.0447
- RRIRNRPPRLPRPRPRPNCYPRP — lower, -0.618
- RRIRYRPPRLPRPRPRPSMEPRP — lower, -0.408
- RRIRTRPPRLPRPRPRPQNPPRP — lower, -0.148
- RRIRMRPPRLPRPRPRPPKYPRP — lower, -0.0762
- RRIRCRPPRLPRPRPRPFQWPRP — lower, -0.0999
- RRIRDRPPRLPRPRPRPRADPRP — within 0.2 log units, 0.65
- RRIRSRPPRLPRPRPRPLAPPRP — lower, 0.223
- RRIRTRPPRLPRPRPRPLSYPRP — lower, -0.155
- RRIRARPPRLPRPRPRPSLNPRP — lower, -0.0562
- RRIRARPPRLPRPRPRPDHYPRP — lower, -0.287
- RRIRARPPRLPRPRPRPQSPPRP — lower, -0.0671
- RRIRRRPPRLPRPRPRPVKPPRP — lower, 0.265
- RRIRSRPPRLPRPRPRPNDFPRP — lower, -0.19
- RRIRTRPPRLPRPRPRPYTGPRP — lower, -0.0567
- RRIRGRPPRLPRPRPRPCSVPRP — within 0.2 log units, 0.394
- RRIRVRPPRLPRPRPRPDAYPRP — lower, -0.056
- RRIRKRPPRLPRPRPRPQCKPRP — lower, 0.0757
- RRIRLRPPRLPRPRPRPPFKPRP — lower, 0.0605
- RRIRTRPPRLPRPRPRPFHSPRP — lower, -0.137
- RRIRGRPPRLPRPRPRPVCIPRP — within 0.2 log units, 0.344
- RRIRPRPPRLPRPRPRPRFVPRP — lower, 0.109
- RRIRTRPPRLPRPRPRPEKLPRP — lower, -0.0188
- RRIRIRPPRLPRPRPRPHGYPRP — lower, -0.714
- RRIRCRPPRLPRPRPRPWAMPRP — lower, -0.226
- RRIRWRPPRLPRPRPRPKLMPRP — within 0.2 log units, 0.31
- RRIRWRPPRLPRPRPRPNHPPRP — lower, -0.0659
- RRIRHRPPRLPRPRPRPTARPRP — lower, 0.156
- RRIRARPPRLPRPRPRPEGYPRP — within 0.2 log units, 0.582
- RRIRCRPPRLPRPRPRPDPSPRP — lower, -0.0265
- RRIRERPPRLPRPRPRPTGYPRP — lower, -0.0056
- RRIRERPPRLPRPRPRPREDPRP — lower, -0.0632
- RRIRCRPPRLPRPRPRPNEEPRP — lower, -0.00783
- RRIRLRPPRLPRPRPRPKVWPRP — lower, 0.0698
- RRIRMRPPRLPRPRPRPGDSPRP — within 0.2 log units, 0.557
- RRIRGRPPRLPRPRPRPGRYPRP — lower, -0.378
- RRIRYRPPRLPRPRPRPEKPPRP — lower, -0.00145
- RRIRWRPPRLPRPRPRPNMPPRP — lower, -0.268
- RRIRNRPPRLPRPRPRPSIAPRP — lower, -0.0838
- RRIRRRPPRLPRPRPRPIGIPRP — lower, -0.088
- RRIRSRPPRLPRPRPRPFVVPRP — lower, -0.0648
- RRIRHRPPRLPRPRPRPYWGPRP — lower, -0.0562
- RRIRDRPPRLPRPRPRPKCKPRP — lower, -0.0015
- RRIRGRPPRLPRPRPRPAGEPRP — within 0.2 log units, 0.479
- RRIRDRPPRLPRPRPRPENSPRP — lower, 0.0647
- RRIRNRPPRLPRPRPRPSCWPRP — lower, 0.0544
- RRIRRRPPRLPRPRPRPQEWPRP — lower, -0.0466
- RRIRGRPPRLPRPRPRPRYPPRP — lower, 0.232
- RRIRQRPPRLPRPRPRPQAWPRP — lower, 0.0305
- RRIRGRPPRLPRPRPRPIPDPRP — lower, 0.238
- RRIRRRPPRLPRPRPRPWCFPRP — lower, -0.0808
- RRIRLRPPRLPRPRPRPTEDPRP — lower, -0.0182
- RRIRCRPPRLPRPRPRPLFDPRP — lower, -0.426
- RRIRHRPPRLPRPRPRPRGCPRP — within 0.2 log units, 0.387
- RRIRRRPPRLPRPRPRPVAEPRP — within 0.2 log units, 0.663
- RRIRVRPPRLPRPRPRPDYIPRP — lower, -0.381
